In US11434503:

Tested on: piggyBac transposase wild type (Trichoplusia ni)
Experiment: cell_activity
Conditions: yeast excision assay; reference

piggyBac transposase wild type (Trichoplusia ni), sequence (chain, as listed by the source): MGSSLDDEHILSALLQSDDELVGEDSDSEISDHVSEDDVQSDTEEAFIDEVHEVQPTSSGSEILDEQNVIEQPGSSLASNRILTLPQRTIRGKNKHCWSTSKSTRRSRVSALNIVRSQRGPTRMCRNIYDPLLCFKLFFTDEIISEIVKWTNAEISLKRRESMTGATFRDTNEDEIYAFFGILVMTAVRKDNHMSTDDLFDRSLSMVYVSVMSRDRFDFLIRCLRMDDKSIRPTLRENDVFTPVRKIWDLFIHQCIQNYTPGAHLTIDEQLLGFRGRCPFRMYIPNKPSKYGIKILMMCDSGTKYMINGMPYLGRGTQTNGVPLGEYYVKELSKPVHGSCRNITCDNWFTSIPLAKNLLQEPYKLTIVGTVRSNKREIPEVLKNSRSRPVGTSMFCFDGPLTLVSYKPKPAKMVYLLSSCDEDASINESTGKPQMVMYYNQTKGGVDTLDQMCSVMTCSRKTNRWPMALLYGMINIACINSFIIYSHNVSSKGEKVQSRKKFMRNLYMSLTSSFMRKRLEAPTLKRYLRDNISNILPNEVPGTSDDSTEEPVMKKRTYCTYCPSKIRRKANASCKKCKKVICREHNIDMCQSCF

Q: “piggyBac transposon ura- to ura+ excision cassette in yeast” was tested. Which activity (fold (normalized)) did it give?
A: Its activity (fold (normalized)) is 1.
